For data set [1], the target named is T1, GRF9-CELD (Arabidopsis thaliana (Col-0?)) (UniProt Q8S9M3).
T1 sequence: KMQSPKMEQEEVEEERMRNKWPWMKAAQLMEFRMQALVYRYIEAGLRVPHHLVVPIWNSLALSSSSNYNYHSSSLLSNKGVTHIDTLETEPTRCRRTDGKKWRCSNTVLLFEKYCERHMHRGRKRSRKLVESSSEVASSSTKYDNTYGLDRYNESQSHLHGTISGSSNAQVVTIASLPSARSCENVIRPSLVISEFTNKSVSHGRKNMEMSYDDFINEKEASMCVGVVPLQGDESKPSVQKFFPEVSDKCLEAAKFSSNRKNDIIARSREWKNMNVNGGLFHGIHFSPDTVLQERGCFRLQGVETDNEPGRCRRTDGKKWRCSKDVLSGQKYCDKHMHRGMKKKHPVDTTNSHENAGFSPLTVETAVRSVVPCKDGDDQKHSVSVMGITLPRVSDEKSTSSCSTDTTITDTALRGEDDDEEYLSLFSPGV
Description: CELD plate binding assay (streptavidin plate). As to conditions: CELD plate assay: 25 mM HEPES/KOH pH 7.0, 50 mM KCl, 0.5 mM DTT, 10 uM ZnCl2, 0.15 ug/ul herring sperm DNA, 0.3 mg/ml BSA, 10% glycerol, 0.025% NP-40, 2 pmol ….

In data set [2] the target is T2, GRF9-CELD (Arabidopsis thaliana, UniProt Q8S9M3 2-431).
T2 sequence: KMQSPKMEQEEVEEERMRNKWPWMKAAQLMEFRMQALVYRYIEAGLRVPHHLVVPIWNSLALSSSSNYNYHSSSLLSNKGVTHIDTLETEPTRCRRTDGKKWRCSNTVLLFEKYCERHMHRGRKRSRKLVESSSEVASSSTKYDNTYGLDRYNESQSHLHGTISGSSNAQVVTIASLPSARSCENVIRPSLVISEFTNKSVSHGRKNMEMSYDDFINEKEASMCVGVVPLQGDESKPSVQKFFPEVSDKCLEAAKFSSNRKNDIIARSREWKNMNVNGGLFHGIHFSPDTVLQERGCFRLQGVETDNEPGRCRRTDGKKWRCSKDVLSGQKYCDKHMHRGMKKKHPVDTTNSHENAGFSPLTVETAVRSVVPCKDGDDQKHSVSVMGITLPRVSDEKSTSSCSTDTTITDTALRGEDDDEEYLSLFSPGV
In words: competition; molar excess vs labelled N10; CELD plate assay: 25 mM HEPES/KOH pH 7.0, 50 mM KCl, 0.5 mM DTT, 10 uM ZnCl2, 0.15 ug/ul herring sperm DNA, 0.3 mg/ml BSA, 10% glycerol, 0.025% NP-40, 2 pmol probe; binding temperature not stated; EMSA buffer not given (cited protocols). As to conditions: protein: recombinant, tags: C-terminal CELD (cellulase D) fusion, 6xHis, label: none.

Data set [3] addresses T2, GRF9-CELD. Description: EMSA; CELD plate assay: 25 mM HEPES/KOH pH 7.0, 50 mM KCl, 0.5 mM DTT, 10 uM ZnCl2, 0.15 ug/ul herring sperm DNA, 0.3 mg/ml BSA, 10% glycerol, 0.025% NP-40, 2 pmol probe; binding temperature not stated; EMSA buffer not given (cited protocols). As to conditions: protein: recombinant; tags: C-terminal CELD (cellulase D) fusion, 6xHis; label: 5'-DY682; blunt. On the technique in general: In EMSA bound probe runs differently from free probe, usually more slowly.

In data set [4] the target is T2, GRF9-CELD. In words: CELD plate binding assay (streptavidin plate); 10 uM ZnCl2; CELD plate assay: 25 mM HEPES/KOH pH 7.0, 50 mM KCl, 0.5 mM DTT, 10 uM ZnCl2, 0.15 ug/ul herring sperm DNA, 0.3 mg/ml BSA, 10% glycerol, 0.025% NP-40, 2 pmol probe; binding temperature not stated; EMSA buffer not given (cited protocols). As to conditions: protein: recombinant; tags: C-terminal CELD (cellulase D) fusion, 6xHis; label: biotin.

“AGGTAAGTTACTGACACACTCCATTCTTGG (double strand) [GRFE15]”: in data set [1], the binding signal (relative to GRFE1) stood at 0.8.

On to “CCGGTACTGGTCTGACATACCAGAACTTCA (double strand) [GRFE1]”, for which, in data set [1], the binding signal (relative to GRFE1) was 1.

B1: ORG3 EMSA competitor (dsDNA)
DNA 1: CTTTCACTTCATACAACCTGACACCAAATCATCCACATCA
DNA 2: TGTGGATGATTTGGTGTCAGGTTGTATGAAGTGAAAG
Take B1: in the data set with GRF9-CELD [2] (3' overhang 3 nt on strand 1 (so in the source)), the binding result is recorded as “binds”.

B2: ORG3 promoter 40-bp EMSA probe (dsDNA)
DNA 1: CTTTCACTTCATACAACCTGACACCAAATCATCCACATCA
DNA 2: TGATGTGGATGATTTGGTGTCAGGTTGTATGAAGTGAAAG
In the case of B2, in the data set with GRF9-CELD [3], the binding result was “binds”.

B3: ORG3 EMSA mutated competitor (dsDNA)
DNA 1: CTTTCACTTCATACAACCGGACACCAAATCATCCACATCA
DNA 2: TGATGTGGATGATTTGGTGTCCGGTTGTATGAAGTGAAAG
As to B3, in the data set with GRF9-CELD [2] (blunt), the binding result was “no binding”.

B4: GRFE1m4 (dsDNA)
DNA 1: CCGGTACTGGTGTGACATACCAGAACTTCA
DNA 2: TGAAGTTCTGGTATGTCACACCAGTACCGG
B4: the binding signal with GRF9-CELD [4] was 0 relative to GRFE1.

B5: GRFE1m7 (dsDNA)
DNA 1: CCGGTACTGGTCTGAGATACCAGAACTTCA
DNA 2: TGAAGTTCTGGTATCTCAGACCAGTACCGG
Take B5: in the data set with GRF9-CELD [4], the binding signal is 0 relative to GRFE1.

B6: GRFE1m5 (dsDNA)
DNA 1: CCGGTACTGGTCTGACTTACCAGAACTTCA
DNA 2: TGAAGTTCTGGTAAGTCAGACCAGTACCGG
On to B6, for which the binding signal in the data set with GRF9-CELD [4] was 0 relative to GRFE1.

B7: GRFE1m3 (dsDNA)
DNA 1: CCGGTACTGGTCTGACAAACCAGAACTTCA
DNA 2: TGAAGTTCTGGTTTGTCAGACCAGTACCGG
B7: in the data set with GRF9-CELD [4], the binding signal was 0.89 ± 0.08 relative to GRFE1.

B8: GRFE1m6 (dsDNA)
DNA 1: CCGGTACTGGTCGGACATACCAGAACTTCA
DNA 2: TGAAGTTCTGGTATGTCCGACCAGTACCGG
For B8, the binding signal in the data set with GRF9-CELD [4] was 0 relative to GRFE1.

B9: GRFE1m2 (dsDNA)
DNA 1: CCGGTACTGGCCTGACACACCAGAACTTCA
DNA 2: TGAAGTTCTGGTGTGTCAGGCCAGTACCGG
As to B9, the binding signal with GRF9-CELD [4] is 0.43 ± 0.04 relative to GRFE1.

B10: GRFE1m1 (dsDNA)
DNA 1: CCGGTACTGGACTGACACACCAGAACTTCA
DNA 2: TGAAGTTCTGGTGTGTCAGTCCAGTACCGG
For the molecule B10, the binding signal with GRF9-CELD [4] was 0.79 ± 0.03 relative to GRFE1.
